In article PMC7748142:

Molecular target: T1, peroxiredoxin 1 (PRDX1), murine lung fibroblasts (mouse (endogenous in MLFs)), P35700
T1 chain: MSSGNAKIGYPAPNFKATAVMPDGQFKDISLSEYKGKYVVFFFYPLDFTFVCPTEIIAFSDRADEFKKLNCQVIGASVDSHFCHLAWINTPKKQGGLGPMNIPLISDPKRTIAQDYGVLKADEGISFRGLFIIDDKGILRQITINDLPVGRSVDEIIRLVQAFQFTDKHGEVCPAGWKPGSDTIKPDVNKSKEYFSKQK
Assay: non-reducing SDS-PAGE with Western blot; A549 or MLF cells treated with Auranofin (A549: 10 uM, MLF: 2 uM) alone or with KU55933 (10 uM, 1 h pre-treatment); lysed in CHAPS buffer with 100 mM NEM; boiled in non-reducing sample buffer; disulfide-linked dimers
Conditions: remark: other sources report otherwise

B1: peroxiredoxin 1 (PRDX1), murine lung fibroblasts, P35700 1-199 (enzyme)
chain: T1 chain
stoichiometry N: 2
